Data from PMC2663797 (The journal of physical chemistry. B, 2008).

Target: the molecule itself
Test: SDS-PAGE

B1: porin OmpF from E. coli (wild type) (natural protein, UniProt P02931 23-362, looked up)
chain: AEIYNKDGNKVDLYGKAVGLHYFSKGNGENSYGGNGDMTYARLGFKGETQINSDLTGYGQWEYNFQGNNSEGADAQTGNKTRLAFAGLKYADVGSFDYGRNYGVVYDALGYTDMLPEFGGDTAYSDDFFVGRVGGVATYRNSNFFGLVDGLNFAVQYLGKNERDTARRSNGDGVGGSISYEYEGFGIVGAYGAADRTNLQEAQPLGNGKKAEQWATGLKYDANNIYLAANYGETRNATPITNKFTNTSGFANKTQDVLLVAQYQFDFGLRPSIAYTKSKAKDVEGIGDVDLVNYFEVGATYYFNKNMSTYVDYIINQIDSDNKLGVGSDDTVAVGIVYQF
In the case of B1, the “stoichiometry N” value is reported as 3.
